According to EP2329839B1:
Values joined by “and” are separate entries in the source; they are usually repeats but may differ in a detail not shown here. Identical values can stand only once. Blank lines part the entries; values can stand above or below the molecule they belong to. Where no end group is shown, it is not given here.

Legend:
[1] = target: MC3-R (mouse arcuate nucleus) (mouse) (UniProt P33033); assay: cell-based or functional assay
[2] = target: µ opioid receptor (MOP-R) on mouse POMC neurons (mouse) (UniProt P42866); assay: cell-based or functional assay
UniProt P42866, sequence (P42866 whole entry): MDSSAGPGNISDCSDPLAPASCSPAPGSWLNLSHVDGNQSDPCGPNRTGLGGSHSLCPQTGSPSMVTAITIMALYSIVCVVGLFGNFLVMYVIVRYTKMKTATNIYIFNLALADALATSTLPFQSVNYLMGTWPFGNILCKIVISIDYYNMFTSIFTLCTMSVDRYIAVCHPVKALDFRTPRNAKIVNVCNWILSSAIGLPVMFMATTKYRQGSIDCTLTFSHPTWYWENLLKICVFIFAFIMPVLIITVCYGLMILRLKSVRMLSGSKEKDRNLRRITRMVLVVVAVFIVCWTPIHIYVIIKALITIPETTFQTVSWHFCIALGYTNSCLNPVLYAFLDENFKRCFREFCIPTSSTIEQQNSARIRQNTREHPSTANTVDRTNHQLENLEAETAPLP

[3] = target: T1, NPY Y2 receptor (on cell lines expressing it); assay: receptor-binding studies on cell lines expressing the NPY Y2 receptor; labelled ligand not named
T1 sequence (P49146 whole entry, species assumed, looked up): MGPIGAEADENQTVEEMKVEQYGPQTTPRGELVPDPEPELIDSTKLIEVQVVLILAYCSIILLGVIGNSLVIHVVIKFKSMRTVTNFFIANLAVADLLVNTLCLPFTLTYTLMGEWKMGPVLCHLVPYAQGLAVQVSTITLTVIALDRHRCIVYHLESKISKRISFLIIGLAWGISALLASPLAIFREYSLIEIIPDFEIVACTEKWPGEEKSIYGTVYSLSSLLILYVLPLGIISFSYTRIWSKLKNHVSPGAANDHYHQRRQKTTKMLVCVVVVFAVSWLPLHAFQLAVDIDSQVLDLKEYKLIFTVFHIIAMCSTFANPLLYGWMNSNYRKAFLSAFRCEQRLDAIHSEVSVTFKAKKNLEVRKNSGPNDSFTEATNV

UniProt P33033, sequence (P33033 whole entry): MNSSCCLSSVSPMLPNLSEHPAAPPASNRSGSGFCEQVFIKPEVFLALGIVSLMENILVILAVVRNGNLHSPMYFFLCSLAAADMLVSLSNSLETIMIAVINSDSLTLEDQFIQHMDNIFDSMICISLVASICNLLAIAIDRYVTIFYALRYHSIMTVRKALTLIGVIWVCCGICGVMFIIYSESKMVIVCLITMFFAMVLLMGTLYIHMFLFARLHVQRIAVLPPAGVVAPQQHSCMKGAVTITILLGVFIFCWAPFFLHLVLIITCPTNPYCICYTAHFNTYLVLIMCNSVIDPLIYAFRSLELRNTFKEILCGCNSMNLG

frequency of GABAergic IPSCs recorded from POMC neurons [1]: 280%
Molecule: D-Trp^8-γMSH (peptide)

hyperpolarization of the membrane potential of POMC cells (whole cell recording, mouse slices) [2]: 10 mV and 20 mV
Molecule: met-enkephalin (peptide)

IC50 [3]: 1.3 nM
B1: N-acetyl (Leu^28, Leu^31) NPY (24-36) (peptide)
peptide: Ac-LRHYLNLLTRQRY
modifications: ends and bridges not checked
